# What was measured:
# [1] = molecular target: T1, FIH (Homo sapiens, UniProt Q9NWT6); test: FIH assay: decarboxylation of radiolabelled 2OG stimulated by substrate; type: biochemical; conditions: for Activity + FIH (relative to synthetic HIF1alphaCAD): ankyrin peptide substrates, CAD standard peptide = 100; for % activity relative to GST HIF-1α 786-826: substrate incubated with FIH, ascorbate, 2OG, Fe, catalase, 50 mM Tris-HCl pH 7.5, 37° C., 20 minutes; for Stimulation of decarboxylation of 2OG by substrate: recombinant FIH (>95% pure) incubated with each peptide
# T1 construct: made in house
# T1 sequence (Q9NWT6 whole entry): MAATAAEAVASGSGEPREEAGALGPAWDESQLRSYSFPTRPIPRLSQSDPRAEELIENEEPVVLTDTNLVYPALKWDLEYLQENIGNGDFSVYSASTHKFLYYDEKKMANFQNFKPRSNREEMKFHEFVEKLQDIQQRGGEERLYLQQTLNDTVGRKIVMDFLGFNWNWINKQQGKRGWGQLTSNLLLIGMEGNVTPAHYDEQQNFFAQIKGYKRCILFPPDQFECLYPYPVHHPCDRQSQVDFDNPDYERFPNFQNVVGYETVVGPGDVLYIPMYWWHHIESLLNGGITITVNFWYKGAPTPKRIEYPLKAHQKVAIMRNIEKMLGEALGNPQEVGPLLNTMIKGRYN
# Protocol: The peptides shown in Table 1 were tested as potential substrates with purified FIH. The proposed sites of asparaginyl hydroxylation are highlighted in the Table.
# In addition p105 ARD and IkappaB-alpha were also assayed as substrates. The substrates were assayed for decarboxylation of 2OG using radiolabelled 2OG as reported in Hewitson et al., J. Biol. Chem. (2002) 277 26351-26355. FIH was incubated with […] of each substrate together with ascorbate, 2OG, Fe and catalase in 50 mM Tris-HCl, pH 7.5 at 37° C. for 20 minutes.
# Highly purified (>95% pure) recombinant FIH was incubated individually with each of the p105, IkappaB-alpha and FEM-1 peptides as potential substrates using an assay that measures decarboxylation of 2OG. […] Mutation of the proposed asparaginyl residue to be hydroxylated by FIH in p105 ARD to an alanine residue led to a substantial decrease in 2OG turnover. Incubation of FIH with IkappaB-alpha under standard assay conditions also stimulated turnover to a similar extent as observed for p105 ARD (Table 2).
# [2] = molecular target: T1, FIH; test: LC-MS analysis of peptide substrates after incubation with FIH; type: biochemical; conditions: after incubation with FIH under standard assay conditions
# Protocol: A Jupiter C4 HPLC column (15 cm×4.6 mm) was used to purify the substrate peptides following incubation with FIH using a linear gradient of 5-95% acetonitrile/0.05% formic acid at a flow rate of 1 ml/min. The eluate from the column was analysed by a MICROMASS™ ZMD quadrupole mass spectrometer in positive mode.
# (§1) To check for direct peptide substrate hydroxylation, assay mixtures with each of the peptide substrates were analysed by both NMR and LC-MS.
# [3] = test system: 2-OG dependent oxygenases; test: Assays in which 3-fluoro 2-OG replaces 2-OG as co-substrate; type: biochemical; conditions: compound replaces 2-OG under analogous conditions
# Text: [drawing 5] where each R^1, which are the same or different, is as defined above; R^11 represents OH or R^10NH where R^10 is HO, R^1CO or HOOC(X)x wherein R^11 is as defined above, x is 0 or 1 and X is R^1R^1C wherein each R^1, which are the same or different, is as defined above; or R^10 is an amino acid residue H2N(R^1R^1C)CO— wherein each R^1, which are the same or different, is as defined above; n is 1 or 2 and R^12 is H or straight or branched C1 to C6 alkyl; or a salt thereof. Typically X is CH2 or CHOH. Another aspect of the invention concerns analogues of 2-OG that act as improved (relative to 2-OG) co-substrates for the 2-OG dependent oxygenases. Such a compound is 3-fluoro 2-OG.
# [4] = test system: 2-OG oxygenases; conditions: no test described in this patent; cited from earlier work
# [5] = molecular target: T1, FIH; test: 2D-NMR of peptides after incubation with FIH; type: biochemical; conditions: standard assay conditions
# Protocol: Both the FEM-1 and IkappaB-alpha peptides (2 mg) were incubated with FIH under standard assay conditions. Peptides were purified from the assay mixture using a Jupiter C4 HPLC column (15 cm×4.6 mm) with a linear gradient of 5-95% acetonitrile. Peptides were lyophilised and then redissolved in neat ^2H2O containing 1,4-dioxan as the internal chemical shift reference (^1H 3.750, ^13C 67.80 p.p.m.). NMR spectra were obtained using a Bruker Avance DRX500 equipped with an inverse-broadband pulsed-field gradient probe.
# as §1
# [6] = molecular target: T1, FIH; test: Tryptic digest and MALDI-TOF mass spectrometry after incubation with FIH; type: biochemical; conditions: incubated with FIH under standard assay conditions, then tryptic digestion; linear and reflectron mode
# Protocol: For in-gel digests, gel pieces were incubated with […] in 20 mM ammonium bicarbonate and incubated at 37° C. for 16 hrs. For solution digests, after incubation with FIH under standard assay conditions, a 25 μM sample of substrate was removed from the assay, combined with 2.5 μM trypsin in 25 mM ammonium bicarbonate and incubated at room temperature for 8 hours.
# Both in vitro and in vivo produced p105 samples were analysed using an Ettan™ MALDI-ToF Pro mass spectrometer in reflectron mode (Amersham Biosciences) with ANG III and hACTH peptides as internal standards. Tryptic fragments of in vitro produced IkappaB-alpha were analysed using a MALDI-TOF 2T mass spectrometer (MICROMASS™) in reflectron mode using Substance P, hACTH and insulin (B chain, oxidized) calibration standards.
# Recombinant IκB-α was incubated with FIH under standard assay conditions followed by tryptic digestion. The resulting tryptic fragments were analysed using both linear and reflectron mode MALDI-TOF mass spectrometry.
Molecule,Activity + FIH (relative to synthetic HIF1alphaCAD) [1],Hydroxylation of peptide observed by LC-MS analysis [2],% activity relative to GST HIF-1α 786-826 [1],also measured
"2-5A-d-R: fragment of 2-5A-d-R, VEVLKILLDEMGADVNACDN (SEQ ID NO: 16) (listed as Homo sapiens)",27.8,Yes,,
"O=C(O)CC(F)C(=O)C(=O)O (stereo not drawn) [3-fluoro 2-OG, 3-fluoro-2-oxoglutaric acid]",,,,Level of asparagine hydroxylation as co-substrate compared with 2-OG [3]: higher level of asparagine hydroxylation
"O=C(O)CC1CC(=O)N(O)C1=O (stereo not drawn) [Is52, (1-hydroxy-2,5-dioxo-pyrrolidin-3-yl) acetic acid]",,,,Activity (in words) [4]: highly active
CAD: HIF C-terminal transactivation domain standard peptide DESGLPQLTSYDCEVNAPI (SEQ ID NO: 11) (listed as Homo sapiens) [reference compound],100,Yes,75%,
"FEM-1 21 mer: fragment of FEM-1, NALVTKLLLDCGAEVNAVDNE (SEQ ID NO: 3) (listed as Homo sapiens)",,hydroxylated,89%,Stimulation of decarboxylation of 2OG by substrate [1]: roughly equivalent to HIF-1α CAD; 2D-NMR spectra of peptide after incubation with FIH [5]: consistent with asparaginyl hydroxylation
"FGIF: fragment of FGIF, NTRVASFLLQHDADINAQTK (SEQ ID NO: 20) (listed as Homo sapiens)",168,Yes,,
"GABPbeta: fragment of GABPbeta, HASIVEVLLKHGADVNAKDM (SEQ ID NO: 14) (listed as Homo sapiens)",107,Yes,,
GST HIF-1α 786-826: glutathione-S-transferase tagged fragment of the HIF transactivation domains (residues 786-826) [reference compound],,,100%,
"Gankyrin/p28-II: fragment of Gankyrin/p28-II, RDEIVKALLGKGAQVNAVNQ (SEQ ID NO: 17) (listed as Homo sapiens)",116,Yes,,
"IkBa 21 mer: fragment of IκB-α, YLGIVELLVSLGADVNAQEPC (SEQ ID NO: 1) (listed as Homo sapiens)",,hydroxylated,111%,Stimulation of decarboxylation of 2OG by substrate [1]: roughly equivalent to HIF-1α CAD
"M110: fragment of M110, YTEVLKLLIQAGYDVNIKDY (SEQ ID NO: 19) (listed as Homo sapiens)",122,Yes,,
"Myotrophin: fragment of Myotrophin, QLEILEFLLLKGADINAPDK (SEQ ID NO: 18) (listed as Homo sapiens)",154,Yes,,
"Tankyrase 1/2: fragment of Tankyrase, NLEVAEYLLEHGADVNAQDK (SEQ ID NO: 15) (listed as Homo sapiens)",107,Yes,,
"p19-INK-4d: fragment of P19-INK4d, FLDTLKVLVEHGADVNVPDG (SEQ ID NO: 13) (listed as Homo sapiens)",124,Yes,,
"p105 21 mer: fragment of p105, SLPCLLLLVAAGADVNAQEQK (SEQ ID NO: 2) (listed as Homo sapiens)",,,100%,Stimulation of decarboxylation of 2OG by substrate [1]: roughly equivalent to HIF-1α CAD; 2D-NMR spectra of peptide after incubation with FIH [5]: consistent with asparaginyl hydroxylation
"IkappaB-alpha: recombinant IκB-α protein expressed in Escherichia coli from iκB-α/pGEX-2T construct (protein, UniProt P25963 1-317, looked up) NF-kappa-B inhibitor alpha: MFQAAERPQEWAMEGPRDGLKKERLLDDRHDSGLDSMKDEEYEQMVKELQEIRLEPQEVPRGSEPWKQQLTEDGDSFLHLAIIHEEKALTMEVIRQVKGDLAFLNFQNNLQQTPLHLAVITNQPEIAEALLGAGCDPELRDFRGNTPLHLACEQGCLASVGVLTQSCTTPHLHSILKATNYNGHTCLHLASIHGYLGIVELLVSLGADVNAQEPCNGRTALHLAVDLQNPDLVSLLLKCGADVNRVTYQGYSPYQLTWGRPSTRIQQQLGQLTLENLQMLPESEDEESYDTESEFTEFTEDELPYDDCVFGGQRLTL",,,144%,Hydroxylation of tryptic fragment (MALDI-TOF) [6]: hydroxylation of the fragment
"GST p105 ARD: ankyrin repeat domain of p105 (residues 537-809) downstream of glutathione S-transferase (protein, left off: a dimerising Fc or GST, ankyrin repeat domain of p105 (residues 537-809) downstream of glutathione S-transferase) AVQDENGDSVLHLAIIHLHSQLVRDLLEVTSGLISDDIINMRNDLYQTPLHLAVITKQEDVVEDLLRAGADLSLLDRLGNSVLHLAAKEGHDKVLSILLKHKKAALLLDHPNGDGLNAIHLAMMSNSLPCLLLLVAAGADVNAQEQKSGRTALHLAVEHDNISLAGCLLLEGDAHVDSTTYDGTTPLHIAAGRGSTRLAALLKAAGADPLVENFEPLYDLDDSWENAGEDEGVVPGTTPLDMATSWQVFDILNGKPYEPEFTSDDLLAQGDM",,,129%,
"p105 ARD: ankyrin repeat domain of p105, amino acid residues 537-809 (SEQ ID NO: 22), GST tag cleaved (protein, listed as Homo sapiens) TAVQDENGDSVLHLAIIHLHSQLVRDLLEVTSGLISDDIINMRNDLYQTPLHLAVITKQEDVVEDLLRAGADLSLLDRLGNSVLHLAAKEGHDKVLSILLKHKKAALLLDHPNGDGLNAIHLAMMSNSLPCLLLLVAAGADVNAQEQKSGRTALHLAVEHDNISLAGCLLLEGDAHVDSTTYDGTTPLHIAAGRGSTRLAALLKAAGADPLVENFEPLYDLDDSWENAGEDEGVVPGTTPLDMATSWQVFDILNGKPYEPEFTSDDLLAQGDM",,,164%,

# Source: US7638295B2, “Assays for identifying modulators of the hydroxylation of ankyrin repeat proteins by 2-oxoglutarate dependent oxygenase and methods of using the same” (priority 2004, dated 2009)
